# Measured values: the RNAGym collection of RNA variant scans (doi:10.1073/pnas.2313332121)
# B1: TPR t1 (parent)
# chain: GACCAAUCUGCCCUCAGAGCUCGAGAACAUCUUCGGAUGCAGAGGAGGCAGGCUUCGGUGGCGCGAUAGCGCCAACGUCCUCAACCUCCAAUGCAUCCCACCACAUGAUGAUGCCUGAAGAGCCUUGGUUUUUUG
# Variants of: B1
# Assay: polymerase ribozyme fitness, log enrichment relative to wild type (log ratio); higher = more active; in vitro selection for triplet polymerase activity
# Outline: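 Only genotypes with ≥10 input reads and ≥1 read per output were kept after Illumina sequencing of input and output libraries. These libraries were PCR-built, transcribed mutants of each subunit of a heterodimeric triplet polymerase ribozyme, each put through one triplicate in vitro selection round with frozen incubation at −7 °C, gel excision of extended constructs, streptavidin-bead capture and RT-PCR. Fitness is a logarithmic ratio of genotype enrichment to wild-type enrichment, from inverse-variance-weighted replicate averages, with the logarithm in base 2.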
row,Variant,polymerase ribozyme fitness (log ratio)
1,GACCAAUCUGCUCUCAGAGCUCGAGAACAUCUUCGUAUGCAGAGGAGGCAGGCUUCGGUGGCGCGAUAGCGCCAACGUCCUCAACCUCCAAUGCAUCCCACCACAUGAUGAUGCCUGAAGAGCCUUGGUUUUUUG,-0.34
2,GACCAAUCUGCUCUCAGAGCUCGAGAACAUCUUCGGAUACAGAGGAGGCAGGCUUCGGUGGCGCGAUAGCGGCAACGUCCUCAAUCUCCAAUGCAUCCCACCACAUGAUGAUGCCUGAAGAGCCUUGGUUUUUUG,-1.34
3,GACCAAUCUGCUCUCAGAGCUCGAGAACAUCUUCGGAUCCAGAGGAGGCAGGCUUCGGUGGCGCGAUAGCGCCAACGUCCUCAACCUCCAAUGCAUCCCACCACAUGAUGAUGCCUGAAGAGCCUUCGUUUUAUG,-1.79
4,GACCAAUCUGCUCUCAGAGCUCGAGAACAUCUUCGGAUGCAGAGGAGGCAGGCUUCGGUGGCGCGAUAGCGCCAACGUCCUCAACCUCCAAUGCAUCCUACCACAUGAUGAUGCCUGAAGAGCCUUGGUUUUUUG,-2.6
5,GACCAAUCUGCUCUCAGAGCUUGAGAACAUCUUCGGAUGCAGAGGAGGCAGGCUUCGGCGGCGCGAUAGCGCCAACGUCCUCAACCUCGAAUGCAUCCCACCACAUGAAGAUGCCAGAAGAGGCUUGGUUUUUUG,-7.4
6,GACCAAUCUGCUCUCACAGCUCGAGAACGUCUUCGGAUGCAGAGGAGGCAGGCUUCGGUGGCGCGAUAGCGCCAACGUCCUAAACCUCCUAUGCCUCCCACCACACGAUGAUGCCUGAAAUGCCUUGGUUUUUUG,-6.75
7,GACCAAUCUGCUCUCAGAGCUCGAGAACAUCUUGGGAUGCAGAGGAGGCAGGCUUCGGUGGCGCGAUAGCGCCAACGUCCUCAACCUCCAAUGCAUCCCACCACAUGAUGAUGCCUGAAGAGCCUUAGUUUUUUG,-6.04
8,GACCAAUCUGCUCUCAGAGCUCGAGAACAUCUUCGGAUGCAGAGGAGGUAGGCUUCGGUGGCGCGAUAGCGCCAACGUCCUCAACCUCCAAUGCAUUCCACCACAUGAUGAUGCCUGAAGAGCCUUGGUUUUUUG,-1.6
9,GACCAAUCUGCUCUCAGAGCUUGAGAACAUCUUCGGAUGCAGAGGAGGCAGGCUUCGGCGGCGCGAUAGCGCCAACGUCCUCAAGCUCCAAUGCAUCCCACCACAUGAUGAUGCCUGAAGAGCCUUGGUUUUUUG,-4.46
10,GACCAAUCUGCUCUCAGAGCUCGAGAACAUCUUCGGAUGCAGAGGAGGCAGGCUUCGGUGGCGUGAUAGCGCCAACGUCCUCAACCUCCAAUGCAUCUCACCACAUGAUGAUGCCUGAAGAGCCUUGGUUUUUUG,-0.396
11,GACCAAUCUGCUCUCAGAGCUCGAGAACAUCUUCGGAUACAGAGGAGGCAGGCUUAGGUGGCGCGAUAGCGCCAACGUCCUCAACCUCCAAUGCAUCCCACCACAUGAUGAUGCCUGAAGAGCCUUGGUUUUUUG,-0.34
12,GACCAAUCUGCUCUCAGAGCUCGAGAACAUCUUCGGAUACAGAGGAGGCAGGCUUCGGUGGCGCGAUAGCGACGACGUUGUCAACCUCCAAUGCAUCCCACCACAUGAUGAUGCCUGAAGAGCCUUGGUUUUUUG,-5.3
13,GACCAAUCUGCUCUCAGAGCUCGAGAACAUCUUCGGAUGCAGAGGAGGGAGGCUUCGGUGCCGCGAUAGCGCCAACGUCCUCAACCUCCAAUGCAUCCCACCACAUGAUGAUGCCUGAAGAGCCUUGGUUUUUUG,-1.89
14,GACCAAUCUGCUCUCAUAGCUCGAGAACAUCUUCGGAUGCAGAGGAGGCAGGCUUCGGUGGCGCGAUAGCGCCAACGUCCUCAACCUCCAAUGUAUCCCACCACAUGAUGAUACCUGAAGAGCCUUGGUUUUUUG,-2.71
15,GACCAAUCUGCUCUCAGAGCUCGAGAACAUCUUCGGAUGCAGAGGAGGCAGGCUUCGGUGGCGCGAUAGCGCCAACGUUCUCAACCUCCAAUGCAUCCCACCACAUGAUGAUGCCUGAAGAGCCUUGGUUUUUUG,0.083
16,GACCAAUCUGCUCUCAGAGCUAGAGAACAUCUUCGGAUGCAGAGGAGGCAGGCUUCGGUGGCGCGAUAGCGCCAACGUCCUCAACCUCCAAUGCAUCCCACCACAUGAUGAUGCCUGAAGAGCCUUGGUUUUUUG,-4.93
17,GACCAAUCUGCUCUCAGAGCUCGAGAACAUCUUAGGAUGCAGAGGAGGCAGGCUUCGGUGGCGCGAUAGCGCCAACGUCCUCAACCUCCAAUGCAUCCCACCACAUGAUGAUGCCUGAAGAGCCUUGGUUUUUUG,-2.28
18,GACCAAUCUGCUCUCAGAGCUCGAGAACAUCUUCGGAUGCAGAGGAGGCAGGGUUCGGUGGCGCGAUAGCGCCAACGUCCUCAACCUCCAAUGCAUACCACCACAUGAUGAUGCCUGAAGAGCCUUGGUUUUUUG,-5.8
19,GACCAAUCUGCUCUCAGAGCUCGAGAACAUUUUCGGAUGCAGAGGAGGCAGGCUUCGGUGGCGCGAUAGCGCCAACUUCCUCAACCCCCAAUGCAUCCCACCACAUGAUGAUGCCUGAAGAGUCUUGGUUUUUUG,-3.57
20,GACCAAUCUGCUCUCAGAGCUCAAGAACAUCUUCGGAUGCAGAGGAGGCAGGCUUCGGUGGCGCGAUAGCGCCAACGUCCUCAACCUCCAAUGCAUCCCACCACAUGAUGAUGCCUGAAAAGCCUUGGUUUUUUG,-3.8
21,GACCAAUCUGCUCUCAGAGCUCGAGAACAUCUUCGGAUGCAGAGGAGGCAGGCUUAGGUGGCGCGAUAGCGCAAACGCCCUCAACCUCCAAUGCAUCCCACCACAUGAUGGUGCCUGAAGAGCCUUGGGUUUUUG,-1.25

row,Variant,polymerase ribozyme fitness (log ratio)
1,GACCAAUCUGCUCUCAGAGCUCGAGAACAUCUUCGGAUGCAGAGGAGGCAGGCUUCGGUGGCGCGAUAGCGCCAAGGUACUCAACCUCCAAUGCAUCCUACCACAUGAUGAUGCCUGAAGAGCCUCGGUUUUUUG,-5.59
2,GACCAAUCUGCUCUCAGAGCUCGAGAACAUCUUCGGAUGCAGAGGAGGCAGGCUUCGGUGGGGCGAUAGCGCCAACGUCCUCAACCUCCAAUGCAUCCCACCACAUGAUGAUGCCUGAAGAUCCUUGGUUUUUUG,-0.331
3,GACCAAUCUGCUCUCAGAGCUCGAGAACAUCUUCGGAUGCAGAGGAGGCAGGCUUCGGUGGCGCGAUAGCGCCAACGUCCUCAACUUCCAAUGCAUCCCACCUCAUGAUGUUGCCUGAAGAGCCUUGGUUUUUUG,-4.99
4,GACCAAUCUGCUCUCAGAGCUCGAGAACAUCUUCGGAUGCAGAGGAGGCAGGCUUCGGUGGCGCGAUAGCGUCAACGUCCUCAACCUCCAAUGCAUCCCACCACAUGAUGAUGCCUGAAGAGCCUUGGUGUUUUG,-0.295
5,GACCAAUCUGCUCUCAGAGCUCGAGAACAUCUUCGGAUGCAGAGGAGGCAGGCUUAGGUGGCGCGAUAACGCCAACGUCCUCAACCUCCAAUGCAUCCCACCACAUGAUGAUGCCUGAAGAGCCUUGGAUUUUUG,-5.35
6,GACCAAUCUGCUCUCAGAGCUCGAGAAGAUCUUCGGAUGCAGAGGAGGCAGGCUUCGGUGGCGCGAUAGCGCCAACGUCCUCAACCUCCAAUGCAUCCCACCACAUGAUGAUGCCUGAAGAGCCUUGGUUUUUUG,-1.98
7,GACCAAUCUGCUCUCAGAGCUCGAAAACAUCUUCGGAUGCAGAGGAGGCAGGCUUCGGUGGCGCGAUAGCGCCAACGUCCUCAACCUCCAAUCCAUCCCACCACAUGAUGAUGCCUGAACAGCCUUGGUUUUUUG,-7.38
8,GACCAAUCUGCUCUCAGAGCUCGAGAACAUCUUCGGAUGCAGAGGAGGCAGGCUUCGGUGGCGCGAUAGCGCCAACGUCCUCAACCUCCAAUGCAUCCCACCACAUGAUGAUGCCUGAAGAGCGUUGGUUUUUUG,2.23
9,GACCAAUCUGCUCUCAGAGCUCGAGAACAUCUUCGGAUGCAGAGGAGGCAGGCUUCGGUGGCGCGAUAGCGUCAACGUCCUCAACCUCCAAUGCAUCCCACCAAAUGAUGAUGCCUGAAGAGCCGUGGUUUUUUG,-1.99
10,GACCAAUCUGCUCUCAGAGCUCGAGAACAUCUUAGGAUGCAGAGGAGGCAGGUUUCGGUGGCGCGAUAGCGUCAACGUCCUCAACCUCCAAUGCAUCCCACCACAUGAUGAUGCCUGAAGAGCCUUGGUUUUUUG,-2.62
11,GACCAAUCUGCUCUCAGAGCUCGAGAACAUCUUCGGAUGCAGAGGAGGAAGGCUUCGGUGGCGCGAUAGCGCCAAGGUCGUCAACCUACAACGCAUCCCACCACAUGAUGACGCCUGAAGAGCCUUGGUUUUUUG,-7.46
12,GACCAAUCUGCUCUCAGAGCUCGAGAACAUCUUCGGAUGCAGAGGAGGCAGGCUUCGGUGGCGCGAUAGCGCCAACGUCCUCAACCUCCAAUGCAUCCCACCAUAUGAUGAUGCCUGAAGAGCCUUGGUUUUUUG,0.248
13,GACCAAUCUGCUCUCAGAGCUCGAGAACAUCUUCGGAUGCAGAGGAGGCAGGCUUCGGUGGCGCGAUAGCGCCAACGUCCUCAACCUCCAAUGCAUCCCACCACAUGAUGAUGCUUGAAGAGCCUUGGUUUUUUG,-0.992
14,GACCAAUCUGCUCUCAGAGCUCGAUAACAUCUUCGGAUGCAGAGGAGGCAGGCUUCGGUGGCGCGAUAGCGCCAACGUCCUCAACCUCCAAUGCAUCCCACCACAUGAUGAUGCCUGAAGAGCCUUGGUUUUUUG,-6.45
15,GACCAAUCUGCUCUCAGAGCUCGAGAACAUCUUCGGAUGCAGAGGAGGCAGGCUUCGGUGGCGCGAUAGCGCCAAUGUCCUCAACCUCCAAUGCAUCCCACCACAUGAUGAUGCCUGAAGAGCCUUGGUUUUUUG,-0.504
16,GACCAAUCUGCUCUCAGAGCUCGAGAACAUCUUCGGAUGCAGAGGAGGAAGGCUUCGGUGGCGCGAUAGCGCCAACGUCCUCAACCUCCAAUGCACCCCACCACAUGAUGAUGCCUGAAGAGCCUUGGUUUUUUG,-0.405
17,GACCAAUCUGCUCUCACAGCUCGAGAACAUCUUCGGAUGCAGAGGAGGCAGGCUUCGGUGGCGCGAUAGCACCAACGUCCUCAACCUCCAAUGCAUGCCACCACAUGAUGAUGCGUGAAGAGCCUUGGUUUUUUG,-4.83
18,GACCAAUCUGCUCUCAGAGCUCGAGAACAUCUUCGGAUGCAGAGGAGGCAGGCUUCGGUGGCGCGAUAGCGUCAACGUCCGCAACCUCCAAUGCAUCCCACCACAUGAUGAUGCCUGAAGAGCCUUGGUUUUUUG,-3.47
19,GACCAAUCUGCUCUCAGAGCUCGAGAACAUCUUCGGAUGUAGAGGAGGCAGGCUUCGGUGGCGCGAUAGCGCCAACGUCCUCAACCUCCGAUGCAUCCCACCACAUGAUGAUGCCUGAAGAGCCUUGGUUUUUUG,0.0487
20,GACCAAUCUGCUCUCAGAGCUCGAGAACAUCUUCGCAUGCAGAGGAGGCAGGCUUCGGUGGCGCGAUAGCGCCAACGUCCUCAACCUCCAAUGCAUCCCACCACAUGAUGAUGCCUUAAGAGCCUUGGUUUUUUG,-0.382
21,GACCAAUCUGCUCUCAGAGCUCGAGAACAUCUUCGGAUGCAGAGGAGGUAGGCUUCGGUGGCGCGAUAGCGCCAACAUCCUCAACCUCCAAUGCAUAACACCACAUGAAGAUGCCUGAUGAGCCUUCGUUUUUUG,-6.68
